Measurements taken from publication PMC2172640 (The Journal of Cell Biology, 2003).

T1: HA95 (human (endogenous in Bjab and HeLa), UniProt Q9ULX6 1-646)
T1 sequence (looked up): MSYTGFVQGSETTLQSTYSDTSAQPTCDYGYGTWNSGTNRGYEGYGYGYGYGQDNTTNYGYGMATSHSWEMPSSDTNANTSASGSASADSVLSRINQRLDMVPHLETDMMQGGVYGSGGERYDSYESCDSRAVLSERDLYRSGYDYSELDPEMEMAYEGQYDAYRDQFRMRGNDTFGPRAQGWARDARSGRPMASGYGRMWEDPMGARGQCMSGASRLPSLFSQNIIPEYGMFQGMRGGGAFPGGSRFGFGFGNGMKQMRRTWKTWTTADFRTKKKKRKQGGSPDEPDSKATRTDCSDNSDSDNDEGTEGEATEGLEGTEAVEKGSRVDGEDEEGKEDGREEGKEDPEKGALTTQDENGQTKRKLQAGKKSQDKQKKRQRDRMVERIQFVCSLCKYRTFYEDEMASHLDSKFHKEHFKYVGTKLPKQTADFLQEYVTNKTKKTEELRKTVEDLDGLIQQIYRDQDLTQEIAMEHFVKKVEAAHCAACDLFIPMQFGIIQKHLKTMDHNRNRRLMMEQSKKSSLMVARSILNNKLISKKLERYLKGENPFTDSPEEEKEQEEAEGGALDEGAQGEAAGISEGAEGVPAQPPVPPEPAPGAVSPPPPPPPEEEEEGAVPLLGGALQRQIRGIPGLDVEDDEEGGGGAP

B1: GST–LAP2β(1–452) (domain or fragment, UniProt Q62733 1-452, looked up)
chain: MPEFLEDPSVLTKDKLKSELVANNVTLPAGEQRKDVYVQLYLQHLTARNRPPLAAGANSKGPPDFSSDEEREPTPVLGSGASVGRGRGAVGRKATKKTDKPRPEDKDDLDVTELSNEELLEQLVRYGVNPGPIVGTTRKLYEKKLLKLREQGAESRSSTPLPTVSSSAENTRQNGSNDSDRYSDNDEDSKIELKLEKREPLKGRAKTPVTLKQRRIEHNQSYSEAGVTETEWTSGSSKGGPLQALTRESTRGSRRTPRRRVEPSQHFRVDGAVISESTPIAETIKASSNDSLVANRLTGNFKHASSILPITEFSDITRRTPKKPLTRAEVGEKTEERRVERDILKEMFPYEASTPTGISASCRRPIKGAAGRPLELSDFRMEESFSSKYVPKYVPLADVKSEKTKKGRSVPMWIKMLLFALVAGFLFLVYQAMETNQGNPFTNFLQDTKISN
B2: GST–LAP2β(1–397) (domain or fragment, UniProt Q62733 1-397, looked up)
chain: MPEFLEDPSVLTKDKLKSELVANNVTLPAGEQRKDVYVQLYLQHLTARNRPPLAAGANSKGPPDFSSDEEREPTPVLGSGASVGRGRGAVGRKATKKTDKPRPEDKDDLDVTELSNEELLEQLVRYGVNPGPIVGTTRKLYEKKLLKLREQGAESRSSTPLPTVSSSAENTRQNGSNDSDRYSDNDEDSKIELKLEKREPLKGRAKTPVTLKQRRIEHNQSYSEAGVTETEWTSGSSKGGPLQALTRESTRGSRRTPRRRVEPSQHFRVDGAVISESTPIAETIKASSNDSLVANRLTGNFKHASSILPITEFSDITRRTPKKPLTRAEVGEKTEERRVERDILKEMFPYEASTPTGISASCRRPIKGAAGRPLELSDFRMEESFSSKYVPKYVPLA
B3: GST–LAP2β(1–298) (domain or fragment, UniProt Q62733 1-298, looked up)
chain: MPEFLEDPSVLTKDKLKSELVANNVTLPAGEQRKDVYVQLYLQHLTARNRPPLAAGANSKGPPDFSSDEEREPTPVLGSGASVGRGRGAVGRKATKKTDKPRPEDKDDLDVTELSNEELLEQLVRYGVNPGPIVGTTRKLYEKKLLKLREQGAESRSSTPLPTVSSSAENTRQNGSNDSDRYSDNDEDSKIELKLEKREPLKGRAKTPVTLKQRRIEHNQSYSEAGVTETEWTSGSSKGGPLQALTRESTRGSRRTPRRRVEPSQHFRVDGAVISESTPIAETIKASSNDSLVANRLT
B4: GST–LAP2β(243–373) (domain or fragment, UniProt Q62733 243-373, looked up)
chain: QALTRESTRGSRRTPRRRVEPSQHFRVDGAVISESTPIAETIKASSNDSLVANRLTGNFKHASSILPITEFSDITRRTPKKPLTRAEVGEKTEERRVERDILKEMFPYEASTPTGISASCRRPIKGAAGRP
B5: GST–LAP2β(137–298) (domain or fragment, UniProt Q62733 137-298, looked up)
chain: TRKLYEKKLLKLREQGAESRSSTPLPTVSSSAENTRQNGSNDSDRYSDNDEDSKIELKLEKREPLKGRAKTPVTLKQRRIEHNQSYSEAGVTETEWTSGSSKGGPLQALTRESTRGSRRTPRRRVEPSQHFRVDGAVISESTPIAETIKASSNDSLVANRLT
B6: GST–LAP2β(243–397) (domain or fragment, UniProt Q62733 243-397, looked up)
chain: QALTRESTRGSRRTPRRRVEPSQHFRVDGAVISESTPIAETIKASSNDSLVANRLTGNFKHASSILPITEFSDITRRTPKKPLTRAEVGEKTEERRVERDILKEMFPYEASTPTGISASCRRPIKGAAGRPLELSDFRMEESFSSKYVPKYVPLA
B7: GST–LAP2β(299–397) (domain or fragment, UniProt Q62733 299-397, looked up)
chain: GNFKHASSILPITEFSDITRRTPKKPLTRAEVGEKTEERRVERDILKEMFPYEASTPTGISASCRRPIKGAAGRPLELSDFRMEESFSSKYVPKYVPLA
B8: GST–LAP2β(137–373) (domain or fragment, UniProt Q62733 137-373, looked up)
chain: TRKLYEKKLLKLREQGAESRSSTPLPTVSSSAENTRQNGSNDSDRYSDNDEDSKIELKLEKREPLKGRAKTPVTLKQRRIEHNQSYSEAGVTETEWTSGSSKGGPLQALTRESTRGSRRTPRRRVEPSQHFRVDGAVISESTPIAETIKASSNDSLVANRLTGNFKHASSILPITEFSDITRRTPKKPLTRAEVGEKTEERRVERDILKEMFPYEASTPTGISASCRRPIKGAAGRP
B9: GST–LAP2β(299–373) (domain or fragment, UniProt Q62733 299-373, looked up)
chain: GNFKHASSILPITEFSDITRRTPKKPLTRAEVGEKTEERRVERDILKEMFPYEASTPTGISASCRRPIKGAAGRP

These binders were tested against T1, HA95 (assay: far-Western, overlay or dot blot).

Binding result, binds:
B1
B2
B3
B4
B5
B6
B7
B8
B9
